{"source": "paper PMC11374129", "target": "T1, EnvZ (Escherichia coli K12) (UniProt P0AEJ4)", "T1 sequence": "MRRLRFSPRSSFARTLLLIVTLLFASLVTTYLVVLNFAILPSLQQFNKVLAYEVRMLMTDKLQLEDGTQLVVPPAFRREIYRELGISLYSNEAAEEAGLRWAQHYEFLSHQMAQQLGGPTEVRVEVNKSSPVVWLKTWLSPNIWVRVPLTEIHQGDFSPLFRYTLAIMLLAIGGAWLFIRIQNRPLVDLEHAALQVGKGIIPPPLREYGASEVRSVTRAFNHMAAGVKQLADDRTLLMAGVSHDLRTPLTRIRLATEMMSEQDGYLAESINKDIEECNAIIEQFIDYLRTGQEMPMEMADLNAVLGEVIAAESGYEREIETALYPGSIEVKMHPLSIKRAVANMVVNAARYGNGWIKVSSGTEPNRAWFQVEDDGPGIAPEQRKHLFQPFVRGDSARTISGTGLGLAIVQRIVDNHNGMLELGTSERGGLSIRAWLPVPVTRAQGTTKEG", "assay": "EMSA", "data": [{"sequence": "CACGGCGTGTTCTTCCGACAACGTTCTTAAAAAAACTTCTCTCTCCCAGGTCACACCAGTCACAGAGATTGGCTGTGAGTGTCGCTGTGCACAAACCGCGCACAGACTCATACAGTCCCGGCGGTTCCGTTCACAACCCACGCCTCATCCCCACCGACCCAACACACACCCCACAGTCATCGCCACCGTCATCCACAACTCCGAC (double strand) [oriC]", "values": [{"measurement": "binding", "result": "no binding"}]}]}
